Laboratory results as given in paper PMC9499683, “Isolation and Characterization of Homologically Expressed Methanol Dehydrogenase from Methylorubrum extorquens AM1 for the Development of Bioelectrocatalytical Systems” (International Journal of Molecular Sciences, 2022).

Assays:
Test in all cases: purified protein
Settings in all cases: pH 9.0, 30 °C, free enzyme, ammonium needed as activator
purified protein [1] = substrate: CCO
purified protein [2] = substrate: CCCCCO; format: biochemical, Methylorubrum extorquens
purified protein [3] = substrate: CCCCO; format: biochemical, Methylorubrum extorquens
purified protein [4] = substrate: CO; format: biochemical, Methylorubrum extorquens

B1: MDH-His6-tag (recombinant PQQ-dependent methanol dehydrogenase, PQQ-MDH) (Methylorubrum extorquens AM1) (protein)
chain: NDKLVELSKSDDNWVMPGKNYDSNNFSDLKQINKGNVKQLRPAWTFSTGLLNGHEGAPLVVDGKMYIHTSFPNNTFALGLDDPGTILWQDKPKQNPAARAVACCDLVNRGLAYWPGDGKTPALILKTQLDGNVAALNAETGETVWKVENSDIKVGSTLTIAPYVVKDKVIIGSSGAELGVRGYLTAYDVKTGEQVWRAYATGPDKDLLLASDFNIKNPHYGQKGLGTGTWEGDAWKIGGGTNWGWYAYDPGTNLIYFGTGNPAPWNETMRPGDNKWTMTIFGRDADTGEAKFGYQKTPHDEWDYAGVNVMMLSEQKDKDGKARKLLTHPDRNGIVYTLDRTDGALVSANKLDDTVNVFKSVDLKTGQPVRDPEYGTRMDHLAKDICPSAMGYHNQGHDSYDPKRELFFMGINHICMDWEPFMLPYRAGQFFVGATLNMYPGPKGDRQNYEGLGQIKAYNAITGDYKWEKMERFAVWGGTMATAGDLVFYGTLDGYLKARDSDTGDLLWKFKIPSGAIGYPMTYTHKGTQYVAIYYGVGGWPGVGLVFDLADPTAGLGAVGAFKKLANYTQMGGGVVVFSLDGKGPYDDPNVGEWKSAAK
notes: full-length mxaF ORF with leader peptide and C-terminal His6 tag, expressed from pCM160 in M. extorquens AM1; small subunit co-purified from host; Ni-NTA; PQQ and Ca2+; with Methanol dehydrogenase [cytochrome c] subunit 2
Km (purified protein [1]): 610 ± 60 µM
Vmax (purified protein [1]): 2.9 µmol/min/mg
Km (purified protein [2]): 1400 ± 100 µM
Vmax (purified protein [2]): 2.8 µmol/min/mg
Km (purified protein [3]): 1900 ± 200 µM
Vmax (purified protein [3]): 2.7 µmol/min/mg
Km (purified protein [4]): 360 ± 70 µM
Vmax (purified protein [4]): 4.2 µmol/min/mg
